Data: publication PMC11785930

Molecular target: STAT3 (protein used in the ELISA) (UniProt P42227)
Assay: ELISA; documented protocol (ref. 44); which protein was coated and the conditions are not told

Kd: 0.12 µM
Substance: Becn1 (protein used in the ELISA) (from UniProt O88597 1-448) (natural protein)
